Experimental data reported in patent US6635421 (CHILDREN S MEDICAL CENTER, dated 2003).

T1: Human NP-2 (neuropilin-2) (human, UniProt O60462 21-931)
T1 sequence: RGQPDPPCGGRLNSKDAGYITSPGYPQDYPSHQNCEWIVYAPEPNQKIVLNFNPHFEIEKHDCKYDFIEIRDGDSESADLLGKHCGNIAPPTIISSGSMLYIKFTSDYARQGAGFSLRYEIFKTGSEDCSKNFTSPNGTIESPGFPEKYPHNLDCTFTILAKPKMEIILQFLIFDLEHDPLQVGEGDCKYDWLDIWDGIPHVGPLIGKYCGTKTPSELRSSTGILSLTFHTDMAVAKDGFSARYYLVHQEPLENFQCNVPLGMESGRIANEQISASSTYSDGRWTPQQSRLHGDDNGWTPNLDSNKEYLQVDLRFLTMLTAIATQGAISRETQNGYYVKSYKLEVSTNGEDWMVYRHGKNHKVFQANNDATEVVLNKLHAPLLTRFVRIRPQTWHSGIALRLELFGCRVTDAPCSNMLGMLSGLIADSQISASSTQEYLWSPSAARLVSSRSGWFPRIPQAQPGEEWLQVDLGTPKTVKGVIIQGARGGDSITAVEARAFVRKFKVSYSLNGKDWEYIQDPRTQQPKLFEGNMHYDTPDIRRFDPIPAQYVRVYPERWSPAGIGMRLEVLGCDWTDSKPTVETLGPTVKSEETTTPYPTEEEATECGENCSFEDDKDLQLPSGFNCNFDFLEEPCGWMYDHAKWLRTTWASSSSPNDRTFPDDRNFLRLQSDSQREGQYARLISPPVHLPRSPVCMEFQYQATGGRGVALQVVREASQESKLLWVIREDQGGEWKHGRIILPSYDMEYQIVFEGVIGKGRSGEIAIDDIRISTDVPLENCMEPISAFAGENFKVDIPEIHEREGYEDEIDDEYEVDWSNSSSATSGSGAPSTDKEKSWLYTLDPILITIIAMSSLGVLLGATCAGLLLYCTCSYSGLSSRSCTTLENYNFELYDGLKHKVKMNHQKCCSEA


Experiments:
[1] = target: T2, Human VEGF165R/NP-1 (VEGF165 receptor / neuropilin-1) (human, UniProt O14786 22-923); assay: cross-linking of 125I-VEGF121 to PAE/NP-1 cells, SDS-PAGE, autoradiography
T2 construct: 923 amino acid open reading frame; also called clone A2
Method: The binding was carried out in the presence of 1 μg/ml heparin. […] The cells were lysed and proteins were resolved by 6% SDS-PAGE. The polyacrylamide gel was dried and exposed to X-ray film.

[2] = target: T2, Human VEGF165R/NP-1 (VEGF165 receptor / …); assay: Scatchard analysis of 125I-VEGF165 binding to independently generated PAE/NP-1 clones
[3] = target: T1, Human NP-2 (neuropilin-2); assay: expression cloning: COS-7 cells transfected with single clones screened for 125I-VEGF165 binding (seven positive clones, one of them NP-2)
Method: The E. coli were sub-divided into 50 separate pools and plated onto 50 LB ampicillin dishes, with each pool representing approximately 100 clones. […] The seven positive plasmid clones were amplified and their DNA was analyzed by restriction enzyme digestion. […] One clone from each group was submitted for automated DNA sequencing.

[4] = target: T2, Human VEGF165R/NP-1 (VEGF165 receptor / …); assay: cell-based or functional assay
[5] = target: T2, Human VEGF165R/NP-1 (VEGF165 receptor / …); assay: Scatchard analysis (LIGAND program) of 125I-VEGF165 binding to PAE/NP-1 cells

binding result [1]	Kd [2]	binding result [3]	231 breast carcinoma cell motility (Boyden chamber motility assay) [4]	Kd [5]	Binder
no binding (tested: 10 ng/ml)					Human recombinant VEGF121 (ligand, UniProt P15692-9 27-147, looked up, radio-iodinated (125I, IODO-BEADS), mature) APMAEGGGQNHHEVVKFMDVYQRSYCHPIETLVDIFQEYPDEIEYIFKPSCVPLMRCGGCCNDEGLECVPTEESNITMQIMRIKPHQGQHIGEMSFLQHNKCECRPKKDRARQEKCDKPRR
	0.3 nM	binds	2 fold	0.32 nM	Human recombinant VEGF165 (ligand, UniProt P15692-4 27-191, looked up, radio-iodinated (125I, IODO-BEADS) in the binding and cross-linking experiments; unlabelled when coupled to Sepharose or used as competitor, mature) APMAEGGGQNHHEVVKFMDVYQRSYCHPIETLVDIFQEYPDEIEYIFKPSCVPLMRCGGCCNDEGLECVPTEESNITMQIMRIKPHQGQHIGEMSFLQHNKCECRPKKDRARQENPCGPCSERRKHLFVQDPQTCKCSCKNTDSRCKARQLELNERTCRCDKPRR
